Assay in all cases: cell_activity
For data set [1], the system named is T1, Rec22 WP_016392893.1 (Pseudomonas plecoglossicida).
T1 sequence: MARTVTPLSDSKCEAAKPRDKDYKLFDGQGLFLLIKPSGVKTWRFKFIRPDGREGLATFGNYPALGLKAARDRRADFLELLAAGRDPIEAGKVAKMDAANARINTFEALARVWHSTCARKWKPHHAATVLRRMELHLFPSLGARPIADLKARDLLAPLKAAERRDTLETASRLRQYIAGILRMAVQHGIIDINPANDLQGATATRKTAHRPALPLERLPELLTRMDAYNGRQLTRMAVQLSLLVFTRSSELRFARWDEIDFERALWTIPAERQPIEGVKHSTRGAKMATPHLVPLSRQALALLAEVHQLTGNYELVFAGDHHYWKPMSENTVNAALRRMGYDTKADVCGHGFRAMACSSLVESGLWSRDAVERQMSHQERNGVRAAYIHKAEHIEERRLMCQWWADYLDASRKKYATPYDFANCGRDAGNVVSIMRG
The settings on record: HEK293T inversion; background 1.66.

Data set [2] concerns T2, Rec24 WP_046407494.1 (Sphingomonas sp.).
T2 sequence: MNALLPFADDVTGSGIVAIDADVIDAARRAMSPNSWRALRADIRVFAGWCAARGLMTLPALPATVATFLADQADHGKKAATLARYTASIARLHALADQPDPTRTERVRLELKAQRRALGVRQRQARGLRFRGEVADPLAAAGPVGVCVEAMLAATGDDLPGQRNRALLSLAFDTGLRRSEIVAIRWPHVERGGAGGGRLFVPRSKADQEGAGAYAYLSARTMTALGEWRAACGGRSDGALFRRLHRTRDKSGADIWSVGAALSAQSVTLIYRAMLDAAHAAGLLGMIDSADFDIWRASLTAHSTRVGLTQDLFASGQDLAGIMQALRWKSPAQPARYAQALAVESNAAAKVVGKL
The following applies: HEK293T inversion; background 2.34.

Data set [3] has as its system T3, Rec23 WP_047824597.1 (Croceicoccus naphthovorans).
T3 sequence: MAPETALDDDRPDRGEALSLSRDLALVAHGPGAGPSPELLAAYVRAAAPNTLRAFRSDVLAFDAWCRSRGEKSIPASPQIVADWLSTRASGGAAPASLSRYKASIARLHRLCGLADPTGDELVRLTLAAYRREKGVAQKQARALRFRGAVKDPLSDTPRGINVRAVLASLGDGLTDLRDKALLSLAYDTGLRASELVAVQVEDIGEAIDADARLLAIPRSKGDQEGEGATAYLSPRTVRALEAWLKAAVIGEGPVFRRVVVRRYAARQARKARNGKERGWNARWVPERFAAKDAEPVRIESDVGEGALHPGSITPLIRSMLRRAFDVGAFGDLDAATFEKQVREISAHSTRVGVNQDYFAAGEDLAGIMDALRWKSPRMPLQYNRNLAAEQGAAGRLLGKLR
The following applies: HEK293T inversion; background 0.81.

For data set [4], the system named is T4, Rec21 WP_010365336.1 (Pseudoalteromonas citrea).
T4 sequence: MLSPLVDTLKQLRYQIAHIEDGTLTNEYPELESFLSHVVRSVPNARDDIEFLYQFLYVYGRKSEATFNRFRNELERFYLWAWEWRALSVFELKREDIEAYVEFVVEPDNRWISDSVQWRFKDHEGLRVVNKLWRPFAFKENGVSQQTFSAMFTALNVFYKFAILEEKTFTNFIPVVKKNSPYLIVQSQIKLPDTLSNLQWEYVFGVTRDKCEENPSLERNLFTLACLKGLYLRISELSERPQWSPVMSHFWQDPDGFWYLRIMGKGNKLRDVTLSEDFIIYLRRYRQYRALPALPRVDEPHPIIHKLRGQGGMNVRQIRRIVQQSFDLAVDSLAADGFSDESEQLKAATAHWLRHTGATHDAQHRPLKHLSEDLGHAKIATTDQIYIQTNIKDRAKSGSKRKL
The settings on record: HEK293T inversion; background 4.91.

Data set [5] deals with T5, Rec18 WP_007635552.1 (Paraglaciecola psychrophila).
T5 sequence: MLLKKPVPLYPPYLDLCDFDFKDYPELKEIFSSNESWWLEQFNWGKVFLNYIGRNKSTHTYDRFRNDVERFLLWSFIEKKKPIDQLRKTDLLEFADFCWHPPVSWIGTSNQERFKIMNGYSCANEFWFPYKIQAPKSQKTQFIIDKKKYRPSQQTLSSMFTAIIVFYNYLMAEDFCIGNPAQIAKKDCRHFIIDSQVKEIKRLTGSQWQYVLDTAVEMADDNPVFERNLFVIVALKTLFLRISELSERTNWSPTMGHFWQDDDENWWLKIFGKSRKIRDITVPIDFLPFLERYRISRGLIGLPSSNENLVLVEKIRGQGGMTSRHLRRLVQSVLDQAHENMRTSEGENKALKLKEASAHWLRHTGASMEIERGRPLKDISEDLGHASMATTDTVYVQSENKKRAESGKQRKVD
The settings on record: HEK293T inversion; background 1.255.

With “GACCACTCCAGANNNNNNNNNTCTGGAGTGGTG (double strand) [Rec22 natural site]”, the activity in data set [1] is 1.45 % GFP+. “GCACTAGCGATANNNNNNNNTATCACTAGTGC (double strand) [Rec24 natural site]” yielded an activity in data set [2] of 17.1 % GFP+. “GGACATGTGATANNNNNNNNTATCACATGTTG (double strand) [Rec23 natural site]” gave an activity in data set [3] of 43.3 % GFP+. “TAATGTCCAATANNNNNNNNTATCGGACATAA (double strand) [Rec21 natural site]” came in with an activity in data set [4] of 4.75 % GFP+. “TTATGTCCAATANNNNNNNNTATTGGACATAG (double strand) [Rec17-18 natural site]” showed an activity in data set [5] of 0.202 % GFP+.
